In patent publication US20150252148A1:

Tested on: Dynamic MAPTrix™ Laminin

type IV bacterial collagenase
enzymatic digestion monitored by SDS-PAGE (25:1 substrate:collagenase, 2 h, 37° C.): the apparent molecular weight of various fractions from disgested Dynamic MAPTrix™ Laminin on a SDS-PAGE gel was 29, 18, and 12 kDa
